{"source": "paper PMC3534030", "about": "(2012)", "binders": {"B1": {"name": "EGF (protein)", "chain": "NSYPGCPSSYDGYCLNGGVCMHIESLDSYTCNCVIGYSGDRCQTRDLRWWELR", "modifications": "125I-labeled EGF"}}, "molecular_target": "EGFR (Homo sapiens, UniProt P00533)", "assay": "125I-EGF radioligand saturation binding on human bone marrow mesenchymal progenitor cells"}
{"binder": "B1", "values": [{"measurement": "Kd", "result": 0.0349, "unit": "nM"}]}
